According to patent US20150203577A1 (Chugai, published 2015):
Residue numbers refer to the chain shown, from its start.

T1: mouse FcγRIII extracellular domain, C-terminal His tag (mouse, UniProt P08508 31-215)
T1 construct: also called mFcγRIII; mFcgRIII
T1 chain: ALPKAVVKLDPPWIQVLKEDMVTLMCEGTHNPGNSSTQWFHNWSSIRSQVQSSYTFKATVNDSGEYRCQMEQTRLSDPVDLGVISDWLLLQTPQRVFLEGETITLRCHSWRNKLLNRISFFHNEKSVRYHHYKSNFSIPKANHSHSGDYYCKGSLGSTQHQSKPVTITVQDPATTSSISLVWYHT

T2: mouse FcγRII extracellular domain, C-terminal His tag (mouse, UniProt P08101 30-210)
T2 construct: also called mFcγRII; mFcgRII
T2 sequence: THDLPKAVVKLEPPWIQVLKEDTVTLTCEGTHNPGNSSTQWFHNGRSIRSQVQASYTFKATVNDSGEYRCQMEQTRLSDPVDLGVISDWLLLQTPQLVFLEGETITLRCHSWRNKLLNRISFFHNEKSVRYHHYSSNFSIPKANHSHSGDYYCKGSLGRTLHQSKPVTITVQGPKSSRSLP

B1: H237-MB760/MRAL-k0 (antibody, mouse IgG1, kappa)
heavy: QVQLQESGPGLVKPSETLSLTCAVSGHSISHDHAWSWVRQPPGEGLEWIGFISYSGITNYNPSLQGRVTISRDNSKNTLYLQMNSLRAEDTAVYYCARSLARTTAMDYWGEGTLVTVSSAKTTPPSVYPLAPGSAAQTNSMVTLGCLVKGYFPEPVTVTWNSGSLSSGVHTFPAVLQSDLYTLSSSVTVPSSTWPSETVTCNVAHPASSTKVDKKIVPRDCGCKPCICEPNEVELVFIFPPKPKDVLTITLTPKVTCVVVDISKDDPEVQFSWFVDDVEVHTAQTQPREEQFNLTFRSVSELPIMHQDWLNGKEFKCRVDSAAFPAPIERTISKTKGRPKAPQVYTIPPPKEQMAKDKVSLTCMITDFFPEDITVEWQWNGQPAENYKNTQPIMDTDGSYFVYSKLNVQKSNWEAGNTFTCSVLHEGLHNHHTEKSLSHSPGK
light: not shown
notes: copies: 2 + 2
B2: H237-MB776/MRAL-k0 (antibody, mouse IgG1, kappa)
heavy: B1 heavy with L294S, D320N, R330K, T331Y
light: not shown
notes: copies: 2 + 2
B3: H237-MB810/MRAL-k0 (antibody, mouse IgG1, kappa)
heavy: B1 heavy with Q291L, L294S, D320N, P327Y, R330K
light: not shown
notes: copies: 2 + 2
B4: H237-MB780/MRAL-k0 (antibody, mouse IgG1, kappa)
heavy: B1 heavy with L294S, D320N, A323G, R330K
light: not shown
notes: copies: 2 + 2
B5: H237-MB779/MRAL-k0 (antibody, mouse IgG1, kappa)
heavy: B1 heavy with L294S, D320N, R330K, S333W
light: not shown
notes: copies: 2 + 2
B6: H237-MB790/MRAL-k0 (antibody, mouse IgG1, kappa)
heavy: B1 heavy with L294S, A322D
light: not shown
notes: copies: 2 + 2
B7: H237-MB771/MRAL-k0 (antibody, mouse IgG1, kappa)
heavy: B1 heavy with L294S, D320N, P327Y, R330K
light: not shown
notes: copies: 2 + 2
B8: H237-MB786/MRAL-k0 (antibody, mouse IgG1, kappa)
heavy: B1 heavy with L294S, D320N, A322D
light: not shown
notes: copies: 2 + 2
B9: H237-MB788/MRAL-k0 (antibody, mouse IgG1, kappa)
heavy: B1 heavy with Q291L, L294S
light: not shown
notes: copies: 2 + 2
B10: H237-MB807/MRAL-k0 (antibody, mouse IgG1, kappa)
heavy: B1 heavy with Q291L, L294S, D320M, R330K
light: not shown
notes: copies: 2 + 2
B11: H237-MB808/MRAL-k0 (antibody, mouse IgG1, kappa)
heavy: B1 heavy with Q291L, L294S, D320N, A323G, R330K
light: not shown
notes: copies: 2 + 2
B12: H237-MB782/MRAL-k0 (antibody, mouse IgG1, kappa)
heavy: B1 heavy with Q291L, L294S, R330K
light: not shown
notes: copies: 2 + 2
B13: H237-MB785/MRAL-k0 (antibody, mouse IgG1, kappa)
heavy: B1 heavy with L294S, A322D, R330K
light: not shown
notes: copies: 2 + 2
B14: H237-MB791/MRAL-k0 (antibody, mouse IgG1, kappa)
heavy: B1 heavy with Q291L, L294S, A322D
light: not shown
notes: copies: 2 + 2
B15: H237-MB783/MRAL-k0 (antibody, mouse IgG1, kappa)
heavy: B1 heavy with Q291L, L294S, D320N, A322D, R330K
light: not shown
notes: copies: 2 + 2
B16: H237-MB773/MRAL-k0 (antibody, mouse IgG1, kappa)
heavy: B1 heavy with L294S, D320N, E329Y, R330K
light: not shown
notes: copies: 2 + 2
B17: H237-MB789/MRAL-k0 (antibody, mouse IgG1, kappa)
heavy: B1 heavy with Q291L, L294S, D320N, A322D
light: not shown
notes: copies: 2 + 2
B18: H237-MB766/MRAL-k0 (antibody, mouse IgG1, kappa)
heavy: B1 heavy with L294S, D320M, R330K
light: not shown
notes: copies: 2 + 2
B19: H237-MB812/MRAL-k0 (antibody, mouse IgG1, kappa)
heavy: B1 heavy with L294S, A323G, R330K
light: not shown
notes: copies: 2 + 2
B20: H237-MB787/MRAL-k0 (antibody, mouse IgG1, kappa)
heavy: B1 heavy with Q291L, L294S, A322D, R330K
light: not shown
notes: copies: 2 + 2
B21: H237-MB770/MRAL-k0 (antibody, mouse IgG1, kappa)
heavy: B1 heavy with L294S, D320N, P327F, R330K
light: not shown
notes: copies: 2 + 2
B22: H237-MB761/MRAL-k0 (antibody, mouse IgG1, kappa)
heavy: B1 heavy with L294M
light: not shown
notes: copies: 2 + 2
B23: H237-MB811/MRAL-k0 (antibody, mouse IgG1, kappa)
heavy: B1 heavy with Q291L, L294S, D320N, E329Y, R330K
light: not shown
notes: copies: 2 + 2
B24: H237-MB784/MRAL-k0 (antibody, mouse IgG1, kappa)
heavy: B1 heavy with Q291L, L294S, D320N
light: not shown
notes: copies: 2 + 2
B25: H237-MB809/MRAL-k0 (antibody, mouse IgG1, kappa)
heavy: B1 heavy with Q291L, L294S, D320N, P327F, R330K
light: not shown
notes: copies: 2 + 2

Key:
[1] = molecular target: T1, mouse FcγRIII extracellular domain, …; test: SPR (Biacore T200), antibody captured on Protein L, mFcγR analyte
Experimental: (§1) Each altered antibody was analyzed for its interaction with each Fcγ receptor prepared above using Biacore T100 (GE Healthcare Japan Corp.), Biacore T200 (GE Healthcare Japan Corp.), Biacore A100, or Biacore 4000. The running buffer used was HBS-EP+ (GE Healthcare Japan Corp.). The assay temperature was set to 25° C. The sensor chips used were chips prepared by immobilizing Protein L (ACTIGEN or BioVision) onto Series S Sensor Chip CM5 (GE Healthcare Japan Corp.) or Series S Sensor Chip CM4 (GE Healthcare Japan Corp.) by the amine coupling method.
(§2) In order to calculate the KD value of each altered antibody for FcγR, kinetic analysis was conducted according to the following method: first, the antibody of interest was captured onto any of these chips and allowed to interact with mFcγR diluted with a running buffer. For the obtained sensorgram, the assay results were globally fit into the 1:1 Langmuir binding model using Biacore Evaluation Software to calculate an association rate constant ka (L/mol/s) and a dissociation rate constant kd (1/s). From these values, the dissociation constant KD (mol/L) was calculated.

[2] = molecular target: T2, mouse FcγRII extracellular domain, …; test: as above
Experimental: as §1, §2

Binder	Kd [1] [nM]	relative mFcγRIII-binding activity (mIgG1 = 1) [1]	Kd [2] [nM]	relative mFcγRII-binding activity (mIgG1 = 1) [2]
B1	1020	0.3 fold vs H237-mIgG1/MRAL-k0	14.9	14.1 fold vs H237-mIgG1/MRAL-k0
B2	1430	0.2 fold vs H237-mIgG1/MRAL-k0	18.6	11.3 fold vs H237-mIgG1/MRAL-k0
B3	546	0.5 fold vs H237-mIgG1/MRAL-k0	10.1	20.8 fold vs H237-mIgG1/MRAL-k0
B4	716	0.4 fold vs H237-mIgG1/MRAL-k0	10.4	20.2 fold vs H237-mIgG1/MRAL-k0
B5	1610	0.2 fold vs H237-mIgG1/MRAL-k0	21	10 fold vs H237-mIgG1/MRAL-k0
B6	402	0.7 fold vs H237-mIgG1/MRAL-k0	6.28	33.5 fold vs H237-mIgG1/MRAL-k0
B7	1070	0.3 fold vs H237-mIgG1/MRAL-k0	15.2	13.8 fold vs H237-mIgG1/MRAL-k0
B8	493	0.6 fold vs H237-mIgG1/MRAL-k0	7.73	27.2 fold vs H237-mIgG1/MRAL-k0
B9	475	0.6 fold vs H237-mIgG1/MRAL-k0	9.38	22.4 fold vs H237-mIgG1/MRAL-k0
B10	579	0.5 fold vs H237-mIgG1/MRAL-k0	9.58	21.9 fold vs H237-mIgG1/MRAL-k0
B11	359	0.8 fold vs H237-mIgG1/MRAL-k0	7.19	29.2 fold vs H237-mIgG1/MRAL-k0
B12	567	0.5 fold vs H237-mIgG1/MRAL-k0	9.88	21.3 fold vs H237-mIgG1/MRAL-k0
B13	577	0.5 fold vs H237-mIgG1/MRAL-k0	8.43	24.9 fold vs H237-mIgG1/MRAL-k0
B14	256	1.1 fold vs H237-mIgG1/MRAL-k0	5.23	40.1 fold vs H237-mIgG1/MRAL-k0
B15	378	0.7 fold vs H237-mIgG1/MRAL-k0	6.85	30.6 fold vs H237-mIgG1/MRAL-k0
B16	1310	0.2 fold vs H237-mIgG1/MRAL-k0	16.5	12.7 fold vs H237-mIgG1/MRAL-k0
B17	343	0.8 fold vs H237-mIgG1/MRAL-k0	6.8	30.9 fold vs H237-mIgG1/MRAL-k0
B18	1060	0.3 fold vs H237-mIgG1/MRAL-k0	15	14 fold vs H237-mIgG1/MRAL-k0
B19	418	0.7 fold vs H237-mIgG1/MRAL-k0	6.28	33.4 fold vs H237-mIgG1/MRAL-k0
B20	295	1 fold vs H237-mIgG1/MRAL-k0	5.45	38.5 fold vs H237-mIgG1/MRAL-k0
B21	1170	0.2 fold vs H237-mIgG1/MRAL-k0	15.7	13.3 fold vs H237-mIgG1/MRAL-k0
B22	1570	0.2 fold vs H237-mIgG1/MRAL-k0	15.7	13.4 fold vs H237-mIgG1/MRAL-k0
B23	654	0.4 fold vs H237-mIgG1/MRAL-k0	9.45	22.2 fold vs H237-mIgG1/MRAL-k0
B24	734	0.4 fold vs H237-mIgG1/MRAL-k0	14.3	14.7 fold vs H237-mIgG1/MRAL-k0
B25	638	0.4 fold vs H237-mIgG1/MRAL-k0	11.1	19 fold vs H237-mIgG1/MRAL-k0
